Source: patent US5935927A, “Compositions and methods for stimulating amyloid removal in amyloidogenic diseases using advanced glycosylation endproducts” (The Picower Institute For Medical Research, priority 1996, dated 1999)
Where two headings read alike, the source gives them in different places.

Key:
[1] = molecular target: T1, soluble βAP (Homo sapiens, UniProt P05067); assay: Thioflavin-T fluorescence assay of βAP aggregation and seeding; type: biochemical; details: for effect on fluorescent aggregate formation of βAP: 400 μM βAP 1-28, 0.1M sodium acetate pH 7.0, 100 mM glucose, 0.05M aminoguanidine, FIG. 4; for spontaneous formation of Thioflavin-T fluorescent aggregates: FIG. 1
T1 construct: Co-incubation of 400 μM βAP 1-28 in 0.1M sodium acetate, pH 7.0, with 100 mM glucose; purchased Bachem (Torrance, Calif.); host or cells: chemical synthesis
T1 sequence (P05067 672-699): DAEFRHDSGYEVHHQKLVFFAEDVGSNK
Text: Aggregation and Seeding Reactions. Synthetic, HPLC-purified peptides representing the first 28 (βAP 1-28) and the first 40 amino acids (βAP 1-40) of the 42 amino acid βAP were obtained from Bachem (Torrance, Calif.). Aggregation of soluble βAP 1-28 or βAP 1-40 at different concentrations was initiated by addition of 0.1M sodium acetate (NaOAc) at the indicated pH (between 4.7 and 7.5) and continued for the indicated times. Quantitative aggregate formation with sub-millimolar βAP concentrations was detected using the procedure of LeVine (1992, Protein Science 2:404-410). Briefly, fluorescence of aggregates added to 10 μM Thioflavin-T (Aldrich)/50 mM potassium phosphate buffer, pH 6.0, was measured upon excitation at 450±5 nm and detection of emission at 482±10 mn on a Perkin Elmer LS-50B spectrofluorimeter. Where indicated, small amounts of pre-formed aggregates or "nucleation seeds" were added to the soluble βAP and aggregation initiated with 0.1M sodium acetate.
Generations of "Seeds". […] After incubation, protein concentrations of seed preparations were measured and adjusted with buffer to 150 μM final concentration. […] Lysines at positions 16 and 28 of βAP contain primary amino groups which may react with reducing sugars to generate advanced glycosylation endproducts of AGEs. Indicated amounts of glucose and/or aminoguanidine, a potent inhibitor of advanced glycation and crosslink formation (Brownlee et al., 1986, Science 232:1629-1632), were also added to solutions of βAP before sodium acetate in some experiments.

[2] = test system: insulin-producing β-cells of the adult pancreas; details: human cells; Lorenzo et al. 1994; cited from earlier work
[3] = test system: insulin-producing β-cells of the adult pancreas; details: rat cells; Lorenzo et al. 1994; cited from earlier work

## O=C[C@H](O)[C@@H](O)[C@H](O)[C@H](O)CO [glucose]
[1]
  effect on fluorescent aggregate formation of βAP: stimulates fluorescent aggregate formation

## N=C(N)NN [aminoguanidine]
[1]
  effect on fluorescent aggregate formation of βAP: can inhibit the AGE-enhanced aggregation of βAP

## βAP 1-28: synthetic peptide representing the first 28 amino acids of the 42 amino acid βAP
[1]; 600 μM, pH 7.2
  spontaneous formation of Thioflavin-T fluorescent aggregates: spontaneously and rapidly formed Thioflavin-T fluorescent aggregates within minutes
[1]; concentrations below 300 μM
  spontaneous formation of Thioflavin-T fluorescent aggregates: aggregated very slowly with a considerable lag before fluorescent aggregates were measurable

## human amylin fibrils: fibrils of the 37 amino acid islet amyloid polypeptide (IAPP), amylin (KCNTATCATQRLANFLVHSSNNFGAILSSTNVGSNTY; Islet amyloid polypeptide fibrils; UniProt P10997 34-70, looked up)
[2]
  toxicity to β-cells: toxic
[3]
  toxicity to β-cells: toxic
